Test results taken from patent publication US12703930B2, “Systems and methods for identification of MHC-I peptide epitopes” (THE REGENTS OF THE UNIVERSITY OF CALIFORNIA, priority 2020, dated 2026).
“Also recorded” adds a separate entry of the source.

What was measured:
TAPBPR/HLA-A02 complexes = target: T1, TAPBPR/HLA-A02 complexes (Homo sapiens, UniProt P04439); assay: native gel electrophoresis: release of HLA-A02 from tetramerized TAPBPR/HLA-A02 complexes by peptide; format: binding; conditions: biotinylated TAPBPR/HLA-A02 tetramerized with Streptavidin-PE; TAX 25, 125 or 2500 pmol; P18-I10 2500 pmol; 12% acrylamide gel
T1 construct: Plasmid DNA encoding the luminal domain of class I MHC (MHC-I) heavy chains H2-D^d, HLA-A*02:01; made in house
From the text: The peptide receptive MHC-I complexes were isolated by gel filtration and tetramerized with Streptavidin-PE.

[1] = test system: murine cells expressing the B4.3.2 TCR, DMF5 human T cells expressing the MART-1 TCR, NY-ESO-1 human T cells expressing the NY-ESO-1 TCR; assay: flow cytometry staining of TCR-expressing cells with pMHC-I tetramers; format: cell-based; conditions: TAPBPR at up to 1:100 molar ratio with MHC-I
Protocol: Flow cytometry was performed using commercially available tetramers prepared by currently available methods (“conventional”), as well as by the disclosed methods involving TAPBPR peptide exchange using a stoichiometric amount of TAPBPR (“exchanged stoichiometric”), a catalytic amount of TAPBPR (1:100 TAPBPR: MHC-I) (“exchanged catalytic”) or a mismatched peptide. […]. Tetramers prepared by the disclosed methods performed similarly to tetramers commercially produced using conventional methods.
FIG. 7C illustrates a titration of P18410/H-2D^d binding to B.4.2.3 cells (top), HLA-A*2:01/MART-1 binding to DMF5 cells (middle) and HLA-A*2:01/NY-ESO-1 peptide binding to NY-ESO-1 cells (bottom). The binding compares commercially available pMHC-I tetramers prepared using conventional methods (refolded) with pMHC-I tetramers prepared using the disclosed methods. […]. Data shown is representative of triplicate assays and error-bars are standard deviation from the mean.
Tetramer formation The procedure for production of peptide loaded tetramers using TAPBPR mediated exchange is described in See, e.g., Overall et al., “High Throughput pMHC-I Tetramer Library Production Using Chaperone Mediated Peptide Exchange,” bioRxiv, doi:10.1101/653477 (2019), which is hereby incorporated by reference in its entirety herein. […]

goldilocks/HLA-A*02:01 = goldilocks/HLA-A*02:01 (Homo sapiens, UniProt P04439); assay: native gel electrophoresis assay of TAPBPR-mediated peptide exchange on p*MHC-I; conditions: overnight incubation, excess peptide of interest, TAPBPR:MHC molar ratio 1:1 down to 1:1000

Row | Substance | release of HLA-A02 proteins from the TAPBPR/HLA-A02 complexes (native gel) (TAPBPR/HLA-A02 complexes) | peptide exchange catalysed by TAPBPR (FIGS. 7A-7C) [1] | peptide exchange on goldilocks/HLA-A*02:01 (formation of pMHC species) (goldilocks/HLA-A*02:01)
1 | RGPGRAFVTI [P18-I10] | showed no HLA-A02 proteins |  | 
2 | TAPBPR: molecular chaperone; recombinant luminal domain expressed in Drosophila S2 cells |  | catalyzes efficient peptide exchange when present at up to 1:100 molar ratio with MHC-I | complete peptide exchange; also recorded: catalyzes efficient peptide exchange when present at up to 1:1000 molar ratio with MHC-I
